Assay [1] has as its target T1, human TIM-3 extracellular domain protein with hFc tag (hTIM-3-hFc) (human, UniProt Q8TDQ0 22-200).
T1 construct: not shown: human IgG Fc fragment (hFc) of the pCpC vector
T1 sequence: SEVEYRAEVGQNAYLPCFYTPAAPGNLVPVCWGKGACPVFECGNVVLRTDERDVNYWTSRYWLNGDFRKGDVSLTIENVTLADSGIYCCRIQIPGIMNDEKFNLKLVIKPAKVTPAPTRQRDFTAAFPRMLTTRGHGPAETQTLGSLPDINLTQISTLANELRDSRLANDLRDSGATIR
The assay is described as follows: ELISA, coated human TIM-3 ECD protein, 66.667 nM antibody. On the technique in general: An ELISA detects its analyte on a solid surface through an enzyme-linked reagent.

The target in assay [2] is T2, monkey TIM-3 extracellular domain protein with hFc tag (cTIM-3-hFc) (monkey).
T2 construct: not shown: human IgG Fc fragment (hFc) of the pCpC vector
T2 chain: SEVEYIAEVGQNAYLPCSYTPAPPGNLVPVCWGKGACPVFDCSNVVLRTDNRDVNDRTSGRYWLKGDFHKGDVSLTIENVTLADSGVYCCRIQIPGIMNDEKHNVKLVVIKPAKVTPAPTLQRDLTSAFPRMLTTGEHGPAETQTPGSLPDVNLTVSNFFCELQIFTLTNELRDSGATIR
Kind of assay: ELISA, coated monkey TIM-3 ECD protein, 66.667 nM antibody.

For assay [3], the target named is T3, murine TIM-3 extracellular domain protein with hFc tag (mTIM-3-hFc) (mouse, UniProt Q8VIM0 29-191).
T3 construct: also called mouse TIM-3 extracellular domain protein; not shown: human IgG Fc fragment (hFc) of the pCpC vector
T3 chain: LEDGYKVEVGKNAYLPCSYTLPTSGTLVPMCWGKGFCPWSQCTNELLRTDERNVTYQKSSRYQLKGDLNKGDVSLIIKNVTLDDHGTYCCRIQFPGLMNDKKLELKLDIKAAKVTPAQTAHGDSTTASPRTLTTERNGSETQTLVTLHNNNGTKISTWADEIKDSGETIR
The assay is described as follows: ELISA, coated mouse TIM-3 ECD protein, 0.0001 nM antibody.

The target of assay [4] is T1, human TIM-3 extracellular domain …. Kind of assay: ELISA, coated human TIM-3 ECD protein, 0.0007 nM antibody.
Assay [5] deals with T4, monkey TIM-3 on CHOK1 stable cell line (CHOK1-cTIM-3) (monkey).
T4 chain: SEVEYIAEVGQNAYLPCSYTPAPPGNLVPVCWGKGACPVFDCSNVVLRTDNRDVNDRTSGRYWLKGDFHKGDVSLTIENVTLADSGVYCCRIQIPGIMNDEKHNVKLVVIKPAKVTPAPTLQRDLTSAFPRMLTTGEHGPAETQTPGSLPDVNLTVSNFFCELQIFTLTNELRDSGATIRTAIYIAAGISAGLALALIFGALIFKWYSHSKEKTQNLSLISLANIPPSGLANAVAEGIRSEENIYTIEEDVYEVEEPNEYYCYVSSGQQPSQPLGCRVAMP
Kind of assay: FACS, CHOK1-cTIM-3 cells, 0.064 nM antibody.

Assay [6] has as its target T5, human TIM-3 protein with hFc tag (hTIM-3-hFc protein) (human, UniProt Q8TDQ0 22-200).
T5 construct: also called immunogen 1; human TIM-3 extracellular domain protein; not shown: human IgG Fc fragment (hFc) of the pCpC vector
T5 sequence: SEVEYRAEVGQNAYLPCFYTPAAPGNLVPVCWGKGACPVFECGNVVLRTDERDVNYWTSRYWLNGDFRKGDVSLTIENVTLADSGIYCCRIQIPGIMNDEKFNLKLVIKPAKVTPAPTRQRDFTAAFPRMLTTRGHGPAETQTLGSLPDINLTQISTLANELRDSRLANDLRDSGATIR
The assay is described as follows: ELISA, coated hTIM-3-hFc; antibody 0.0067 nM. An excerpt: (§1) The amino acid sequence 22-200 of the extracellular domain of the human TIM-3 protein described in the step of Example 1 (as shown in SEQ ID NO. 71 in the sequence listing) was cloned into a pCpC vector having a human IgG Fc fragment (hFc), and transfected into HEK293 cells. The cell culture medium was collected, and purified to obtain the human TIM-3 protein with hFc tag (herein referred to as hTIM-3-hFc protein). The amino acid sequence 22-201 of the extracellular domain of the monkey TIM-3 protein (as shown in SEQ ID NO. 72 in the sequence listing) was cloned into a pCpC vector having a human IgG Fc fragment (hFc), and transfected into HEK293 cells. The cell culture medium was collected, and purified to obtain the monkey TIM-3 protein with hFc tag (herein referred to as cTIM-3-hFc protein). […] The cell culture medium was collected, and purified to obtain the murine TIM-3 protein with hFc tag (herein referred to as mTIM-3-hFc protein). Purified human, monkey, and mouse TIM-3 extracellular domain proteins (hTIM-3-hFc, cTIM-3-hFc, and mTIM-3-hFc) were diluted with PBS to a final concentration of 1.0 μg/ml and then added to a 96-well ELISA plate with 100 μl per well. The plate was sealed with plastic film and incubated overnight at 4° C. The plate was washed 4 times with the plate washing solution (PBS+0.01% Tween20) on the next day, and added with the blocking solution (PBS+0.01% Tween20+1% BSA) and sealed at room temperature for 1-2 hours. The blocking solution was poured out. 50-100 μl of the antibody sample to be tested was added to each well. The plate was incubated at 37° C. for 1-2 hours, and washed 2-3 times with plate washing solution (PBS+0. 01% Tween20). HRP (horseradish peroxidase) labeled secondary antibody was added. The plate was incubated at 37° C. for 1-2 hours, and washed 2-3 times with plate washing solution (PBS+0. 01% Tween20). […] of TMB substrate was added to each well. After incubated at room temperature for 15-30 minutes, the plate was added with […] stop solution (1.0N HCl) to each well. An ELISA plate reader (TiterMax 384plus, Molecular Device) was used to read the A450 nm value.

In assay [7] the target is T6, murine TIM-3 protein with hFc tag (mTIM-3-hFc protein) (mouse; human, UniProt Q8VIM0 29-191).
T6 construct: Made in HEK293 cells; also called mouse TIM-3 extracellular domain protein; not shown: human IgG Fc fragment (hFc) of the pCpC vector
T6 chain: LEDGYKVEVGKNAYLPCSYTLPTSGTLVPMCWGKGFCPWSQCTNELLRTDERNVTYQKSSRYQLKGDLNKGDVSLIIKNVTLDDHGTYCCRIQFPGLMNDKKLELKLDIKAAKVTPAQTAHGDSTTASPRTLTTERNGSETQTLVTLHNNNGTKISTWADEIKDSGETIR
Kind of assay: ELISA, coated mTIM-3-hFc; antibody 0.0001 nM.
From the text: as §1

For assay [8], the target named is T5, human TIM-3 protein with hFc tag …. Kind of assay: ELISA, coated hTIM-3-hFc; antibody 0.0007 nM.
From the text: as §1

Assay [9] deals with T6, murine TIM-3 protein with hFc tag …. Kind of assay: ELISA, coated mTIM-3-hFc; antibody 0.0067 nM.
From the text: as §1

Assay [10] addresses T5, human TIM-3 protein with hFc tag …. Kind of assay: ELISA, coated hTIM-3-hFc; antibody 0.0667 nM.
From the text: as §1

B1: 57F4E5 fully human TIM-3 antibody (human IgG4, kappa) (antibody, V domains shown)
VH: EVQLVESGGGLVQPGGSLRLSCAASGFTFSSYWMSWVRQAPGKGLEWVANIKQDGSEKYYVDSVKGRFTISRDSAKNSLYLQMNSLRAEDTAMYFCARDSNFFDYWGQGTLVTVSS
VL: ETVMTQSPATLSVSPGERATLSCRASQSVSSNLAWYQRKPGQAPRLLIYFSSTRATGIPARFSGSGSGTEFTLTISSLQSEDFAVYYCQQYNNWPLTFGGGTKVEIK
As for B1, the OD450 worked out at 3.06 in assay [1], 3.42 in assay [2], 0.24 in assay [3] and 0.11 in [4]. Besides, the Mean fluorescence intensity in assay [5] was 30.6.

B2: 39E5H1 fully human TIM-3 antibody (human IgG4, kappa) (antibody, V domains shown)
VH: EVQLVESGGGLVQPGGSLRLSCAASGFTFSSYWMSWVRQAPGKGLEWVANIKRGGSERYYVDSVKGRFTISGDNAKNSVYLQMNSLRAEDTAVYYCARGSNWFDPWGQGTLVTVSS
VL: ETVMTQSPAILSVSPGERATLSCRASQSVYSNLAWYQQKLGQAPRLLIYDASTRATGIPARFSGSGSGTEFTLTISSLQSEDFAVYYCQQYNNWPITFGQGTRLEIK
In the case of B2, the OD450 in [1] was 3.01; in assay [2], 3.38; in [3], 0.23; in [4], 0.1. The molecule further had a Mean fluorescence intensity in [5] of 42.3.

B3: 134H3G6 fully human TIM-3 antibody (human IgG4, kappa) (antibody, V domains shown)
VH: EVQLVESGGGLVQPGGSLRLSCAASGFTFSNSWMTWVRQAPGKGLEWVANIKQAGTEKYYVDSVKGRFTISRDNAKNSLYLQMNSLRAEDTAVYYCNSGSNYFDYWGQGTLVTVSS
VL: EIVMTQSPATLSVSPGERATLSCRARQNFYSNLAWYQQKPGQAPRLLIYGASTRATGIPARFSGSGSGTEFTLTISSLQSEDFAVYYCQQYNNWPLTFGGGTKVEIK
For B3, the OD450 in assay [1] is 2.77; in assay [2], 3.11; in [3] it was 0.22; in assay [4] it was 0.1. The molecule also registered a Mean fluorescence intensity in [5] of 46.4.

B4: 18D2H2 fully human TIM-3 antibody (human IgG4, kappa) (antibody, V domains shown)
VH: EVQLVESGGDLVQPGGSLRLSCAASGFTFSTYWMTWVRQAPGRGLEWVANIKQDGSAKYYVDSVKGRFTLSRDDAKNSLYLQMNSLRAEDTAVYYCARGSNWFDYWGQGTLVTVSS
VL: ETVMTQSPATLSVSPGERATLSCRANQNVYSNLAWYQQKPGQAPRLLIYDASTRATGFPARFSGSGSGTEFTLTISSLQSEDFAVYYCQQYNNWPLTFGGGTKVEIK
B4: the OD450 in assay [1] turned out to be 2.78; in [2], 3.27; in assay [3], 0.21; in [4] it was 0.11. For the same molecule, the Mean fluorescence intensity in [5] is 44.

B5: 34B6D8 fully human TIM-3 antibody (human IgG4, kappa) (antibody, V domains shown)
VH: EVQLVESGGGLVQPGGSLRLSCAASGFTFSTYWMTWVRQAPGKRLEWVANIKQGGGDKYYVDSVKGRFTISTDNAKNSLYLQMNSLRAEDTAVYYCARGSNWFDPWGQGTLVTVSS
VL: EIVMTQSPATLSMSPGERATLSCRASQSVYDNLAWYQQKPGQAPRLLIYGASTRATGIPARFSGSGSGTEFTLTISSLQSEDFALYYCQQYTHWPITFGQGTRLEIK
As for B5, the OD450 in [1] stood at 3.1; in assay [2], 3.39; in assay [3] it was 0.23; in assay [4] it was 0.11. The molecule also displayed a Mean fluorescence intensity in [5] of 35.4.

B6: 7A4F10 fully human TIM-3 antibody (human IgG4, kappa) (antibody, V domains shown)
VH: EVQLLESGGGLVQPGGSLRLSCAASGFTFRTHLISWVRQAPGKGLEWVAAITGSGGSTYYADSVKGRFIISRDNSKNTLFLQMNSLRAEDTAVYYCAKDGGSGSYDDFWGQGTLVTVSS
VL: ETVLTQSPVTLSLSPGERATLSCRASQSVGSYLAWYQQKPGQAPRLLIYDASNRATGIPARFSGSGSGTDFTLTISSLEPEDFAVYYCQQRSNWPPTFGQGTKVEIK
As to B6, the OD450 in [1] was found to be 3.02; in [2] it was 3.26; in assay [3], 0.22; in [4], 0.11. In assay [5], this molecule showed a Mean fluorescence intensity of 17.2.

B7: 7A4F10 (TIM-3 antibody purified from hybridoma, chimeric antibody of Example 2) (antibody, V domains shown)
VH: EVQLLESGGGLVQPGGSLRLSCAASGFTFRTHLISWVRQAPGKGLEWVAAITGSGGSTYYADSVKGRFIISRDNSKNTLFLQMNSLRAEDTAVYYCAKDGGSGSYDDFWGQGTLVTVSS
VL: ETVLTQSPVTLSLSPGERATLSCRASQSVGSYLAWYQQKPGQAPRLLIYDASNRATGIPARFSGSGSGTDFTLTISSLEPEDFAVYYCQQRSNWPPTFGQGTKVEIK
notes: From hybridoma of Harbour H2L2 transgenic mice: human variable regions, rat constant regions
Take B7: the OD450 in [6] came to 0.13; in assay [7], 0.65; in assay [8], 0.12; in [9] it was 0.64; in assay [10], 0.21.

B8: 215A8F2 fully human TIM-3 antibody (human IgG4, kappa) (antibody, V domains shown)
VH: QVQLQQWGAGLLKPSETLSLTCTVYGGSFSGYYWNWIRQPPGKGLEWLGEINHSGSTNYNPSLKRRVTISVDTSKNQFSLKLSSVTAADTAVYYCARVYYYGPFDFWGQGTLVTVSS
VL: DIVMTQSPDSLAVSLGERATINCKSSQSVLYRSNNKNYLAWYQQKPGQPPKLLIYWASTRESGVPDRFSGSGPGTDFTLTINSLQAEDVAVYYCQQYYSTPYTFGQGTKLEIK
For the molecule B8, the OD450 is 3.08 in [1], 3.24 in [2], 0.21 in [3] and 0.1 in assay [4]. In [5], the Mean fluorescence intensity was determined as 29.9.

Values taken from patent US20220033501A1 (SHANGHAI PHARMAEXPLORER, published 2022).
